{
  "source": "paper PMC4376777",
  "about": "(PLoS Pathogens, 2015)",
  "binders": {"B1": {"name": "His–STING (amino acids 153–379) (domain or fragment, human, UniProt Q86WV6 153-379, looked up)", "chain": "FNVAHGLAWSYYIGYLRLILPELQARIRTYNQHYNNLLRGAVSQRLYILLPLDCGVPDNLSMADPNIRFLDKLPQQTGDHAGIKDRVYSNSIYELLENGQRAGTCVLEYATPLQTLFAMSQYSQAGFSREDRLEQAKLFCRTLEDILADAPESQNNCRLIAYQEPADDSSFSLSQEVLRHLRQEEKEEVTVGSLKTSAVPSTSTMSQEPELLISGMEKPLPLRTDFS"}},
  "molecular_target": "T1, GST–PPM1A (human, UniProt P35813-1 1-382)",
  "T1 construct": "also called GST–PPM1A-WT; purified PPM1A",
  "T1 sequence (looked up)": "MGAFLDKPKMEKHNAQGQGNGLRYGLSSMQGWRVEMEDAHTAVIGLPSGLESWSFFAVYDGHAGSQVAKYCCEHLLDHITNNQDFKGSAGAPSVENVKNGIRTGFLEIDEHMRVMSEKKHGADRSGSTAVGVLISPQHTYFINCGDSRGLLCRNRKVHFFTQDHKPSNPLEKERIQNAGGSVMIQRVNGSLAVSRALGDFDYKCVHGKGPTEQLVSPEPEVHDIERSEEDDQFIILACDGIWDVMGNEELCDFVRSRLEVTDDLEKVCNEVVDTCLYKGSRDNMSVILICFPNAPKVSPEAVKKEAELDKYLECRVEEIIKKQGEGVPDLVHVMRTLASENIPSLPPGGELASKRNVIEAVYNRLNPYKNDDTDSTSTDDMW",
  "assay": "pull-down; 1 μg of each purified protein incubated with glutathione–Sepharose beads at 4°C overnight; washed with 50 mM Tris-HCl pH 7.5, 200 mM NaCl, 10% glycerol, 0.1% Triton X-100; immunoblot",
  "details": "both partners purified",
  "data": [
    {"binder": "B1", "values": [
      {"measurement": "binding result", "value": "binds"}
    ]}
  ]
}
